{"source": "paper PMC11161652", "about": "“ASXLs binding to the PHD2/3 fingers of MLL4 provides a mechanism for the recruitment of BAP1 to active enhancers” (Nature Communications, 2024)", "binders": {"B1": {"name": "ASXL2 peptide (residues 650-670 of ASXL2) (peptide, UniProt Q76L83 650-670, looked up)", "peptide": "NRTGARTLADIKAKAQLVKAQ", "notes": "also called ASXL2 (aa 650-670); MBH of ASXL2; source: synthetic peptide (SynPeptide)"}}, "key": {"MLL4_(PHD2/3) E292K [1]": {"target": "MLL4_(PHD2/3) E292K (human, UniProt O14686 227-324, E292K)"}, "MLL4_(PHD2/3) D285K": {"target": "T1, MLL4_(PHD2/3) D285K (human, UniProt O14686 227-324, D285K)", "T1 construct": "human MLL4 (KMT2D), aa 227-324; source: E. coli BL21-CodonPlus, purified as WT", "T1 sequence (looked up)": "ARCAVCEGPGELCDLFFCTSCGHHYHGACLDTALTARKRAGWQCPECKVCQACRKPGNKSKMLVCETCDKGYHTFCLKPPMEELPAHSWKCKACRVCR", "assay": "not stated; fluorescence spectroscopy or NMR: the legends of Fig. 3c and Fig. 4b say that values marked (a) are from NMR and the others from fluorescence; the text does not tell which for these pairs", "details": "both partners purified"}, "MLL3_(PHD2/3) D372K": {"target": "T2, MLL3_(PHD2/3) D372K (human, UniProt Q8NEZ4 342-439, D372K)", "T2 construct": "human MLL3 (KMT2C), aa 342-439; source: E. coli BL21-CodonPlus, purified as WT", "T2 sequence (looked up)": "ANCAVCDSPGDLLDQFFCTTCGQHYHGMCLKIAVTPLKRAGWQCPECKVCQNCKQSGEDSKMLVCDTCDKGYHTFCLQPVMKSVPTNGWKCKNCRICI", "assay": "not stated; fluorescence spectroscopy or NMR: the legends of Fig. 3c and Fig. 4b say that values marked (a) are from NMR and the others from fluorescence; the text does not tell which for these pairs", "details": "both partners purified"}, "MLL3_(PHD2/3) D400K": {"target": "T3, MLL3_(PHD2/3) D400K (human, UniProt Q8NEZ4 342-439, D400K)", "T3 construct": "human MLL3 (KMT2C), aa 342-439; source: E. coli BL21-CodonPlus, purified as WT", "T3 sequence (looked up)": "T2 sequence (looked up) with K31D, D59K", "assay": "not stated; fluorescence spectroscopy or NMR: the legends of Fig. 3c and Fig. 4b say that values marked (a) are from NMR and the others from fluorescence; the text does not tell which for these pairs", "details": "both partners purified"}, "[2]": {"target": "T4, PHD2 and PHD3 fingers of human MLL3 (aa 342-439) (human, UniProt Q8NEZ4 342-439)", "T4 construct": "PHD2 and PHD3 fingers of human MLL3 (KMT2C), aa 342-439; 15N-labelled for NMR titrations; also used unlabelled as the titrant against MLL3 PHD4; also called MLL3_(PHD2/3); MLL3 PHD2/3; source: E. coli BL21-CodonPlus, purified (glutathione agarose, PreScission cleavage; unlabeled proteins also SEC)", "T4 sequence (looked up)": "T2 sequence (looked up) with K31D", "assay": "other fluorescence titration; tryptophan fluorescence, 25 °C; 1.0 µM MLL4 PHD2/3 or MLL3 PHD2/3 with increasing peptide; excitation 295 nm; 20 mM Tris pH 7.2, 150 mM NaCl, 1 mM TCEP, 0.02% Tween20; average of three measurements", "details": "both partners purified"}, "MLL4_(PHD2/3) D257K": {"target": "T5, MLL4_(PHD2/3) D257K (human, UniProt O14686 227-324, D257K)", "T5 construct": "human MLL4 (KMT2D), aa 227-324; source: E. coli BL21-CodonPlus, purified as WT", "T5 sequence (looked up)": "T1 sequence (looked up) with D31K, K59D", "assay": "other fluorescence titration; tryptophan fluorescence, 25 °C; 1.0 µM MLL4 PHD2/3 or MLL3 PHD2/3 with increasing peptide; excitation 295 nm; 20 mM Tris pH 7.2, 150 mM NaCl, 1 mM TCEP, 0.02% Tween20; average of three measurements", "details": "both partners purified"}, "MLL4_(PHD2/3) E292K [3]": {"target": "T6, MLL4_(PHD2/3) E292K (human, UniProt O14686 227-324, E292K)", "T6 construct": "human MLL4 (KMT2D), aa 227-324; E292K is said to be found in cancers (Cosmic); source: E. coli BL21-CodonPlus, purified as WT", "T6 sequence (looked up)": "T1 sequence (looked up) with K59D, E66K", "assay": "other fluorescence titration; tryptophan fluorescence, 25 °C; 1.0 µM MLL4 PHD2/3 or MLL3 PHD2/3 with increasing peptide; excitation 295 nm; 20 mM Tris pH 7.2, 150 mM NaCl, 1 mM TCEP, 0.02% Tween20; average of three measurements", "details": "both partners purified"}, "MLL4_(PHD2/3) S286A": {"target": "T7, MLL4_(PHD2/3) S286A (human, UniProt O14686 227-324, S286A)", "T7 construct": "human MLL4 (KMT2D), aa 227-324; source: E. coli BL21-CodonPlus, purified as WT", "T7 sequence (looked up)": "T1 sequence (looked up) with K59D, S60A", "assay": "other fluorescence titration; tryptophan fluorescence, 25 °C; 1.0 µM MLL4 PHD2/3 or MLL3 PHD2/3 with increasing peptide; excitation 295 nm; 20 mM Tris pH 7.2, 150 mM NaCl, 1 mM TCEP, 0.02% Tween20; average of three measurements", "details": "both partners purified"}, "MLL4_(PHD2/3) S314A": {"target": "T8, MLL4_(PHD2/3) S314A (human, UniProt O14686 227-324, S314A)", "T8 construct": "human MLL4 (KMT2D), aa 227-324; source: E. coli BL21-CodonPlus, purified as WT", "T8 sequence (looked up)": "T1 sequence (looked up) with K59D, S88A", "assay": "other fluorescence titration; tryptophan fluorescence, 25 °C; 1.0 µM MLL4 PHD2/3 or MLL3 PHD2/3 with increasing peptide; excitation 295 nm; 20 mM Tris pH 7.2, 150 mM NaCl, 1 mM TCEP, 0.02% Tween20; average of three measurements", "details": "both partners purified"}, "[4]": {"target": "T9, PHD2 and PHD3 fingers of human MLL4 (aa 227-324) (human, UniProt O14686 227-324)", "T9 construct": "PHD2 and PHD3 fingers of human MLL4 (KMT2D), aa 227-324; also called MLL4_(PHD2/3); MLL4 PHD2/3; source: E. coli BL21-CodonPlus, purified (glutathione agarose, PreScission cleavage; unlabeled proteins also SEC)", "T9 sequence (looked up)": "T1 sequence (looked up) with K59D", "assay": "other fluorescence titration; tryptophan fluorescence, 25 °C; 1.0 µM MLL4 PHD2/3 or MLL3 PHD2/3 with increasing peptide; excitation 295 nm; 20 mM Tris pH 7.2, 150 mM NaCl, 1 mM TCEP, 0.02% Tween20; average of three measurements", "details": "both partners purified"}}, "note": "Numbering of substitutions follows the chain as printed.", "data": [{"binder": "B1", "values": [{"measurement": "Kd", "setting": "MLL4_(PHD2/3) E292K [1]", "result": 10, "unit": "µM"}, {"measurement": "Kd", "setting": "MLL4_(PHD2/3) D285K", "result": "~1.7", "unit": "mM"}, {"measurement": "fold reduction in binding against wild type MLL3_(PHD2/3)", "setting": "MLL3_(PHD2/3) D372K", "result": "~40", "unit": "fold"}, {"measurement": "fold reduction in binding against wild type MLL3_(PHD2/3)", "setting": "MLL3_(PHD2/3) D400K", "result": 400, "unit": "fold"}, {"measurement": "Kd", "setting": "[2]", "result": 1400, "unit": "nM"}, {"measurement": "Kd", "setting": "MLL4_(PHD2/3) D257K", "result": 27, "unit": "µM"}, {"measurement": "fold reduction in binding against wild type MLL4_(PHD2/3)", "setting": "MLL4_(PHD2/3) E292K [3]", "result": "~14", "unit": "fold"}, {"measurement": "Kd", "setting": "MLL4_(PHD2/3) S286A", "result": 800, "unit": "nM"}, {"measurement": "Kd", "setting": "MLL4_(PHD2/3) S314A", "result": 800, "unit": "nM"}, {"measurement": "Kd", "setting": "[4]", "result": 700, "unit": "nM"}]}]}
